Experimental data: the supplement of paper PMC12783771
± gives the standard deviation of the averaged measurements.

B1: library; numbered along this chain (parent)
chain: MNIQIGELAKRTACPVVTIRFYEQEGLLPPPGRSRGNFRLYGEEHVERLQFIRHCRSLDMPLSDVRTLLSYRKRPDQDCGEVNMLLDEHIRQVESRIGALLELKHHLVELREACSGARPAQSCGILQGLSDCVCDTRGTTAHPSD

Experiments:
[1] = variants of: B1; assay: sfGFP reporter fluorescence (15 h) (µM FITC); higher = higher leak; details: library round: Round 0; ligand: none
Protocol: (§1)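 Cell-free (BL21 Star DE3 extract, PANOx-SP) biosensing: 1 µL Echo-assembled reactions with linear PbrR variant templates (5 nM) and pPbrR-sfGFP reporter, with 1 µM Pb (lead chloride), 30 µM Zn (zinc acetate) or no ligand; endpoint sfGFP fluorescence after 15 h at 30 °C, calibrated as µM FITC. Round 0 library (alanine scan, site saturation, combinatorial) of PbrR from Cupriavidus metallidurans; 2 biological replicates.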

[2] = variants of: B1; assay: sfGFP reporter fluorescence (15 h) (µM FITC); higher = stronger transcriptional activation; details: library round: Round 0
Protocol: as §1

Row | Variant | sfGFP reporter fluorescence [1] | sfGFP reporter fluorescence ([2]; ligand: 1 µM Pb) | sfGFP reporter fluorescence ([2]; ligand: 30 µM Zn)
1 | P15V | 0.0757 ± 0.00078 | 0.07385 ± 0.00026 | 0.212 ± 0.018
2 | P15W | 0.061 ± 0.0013 | 0.06139 ± 0.00026 | 0.06634 ± 0.00052
3 | P15E | 0.0718 ± 0.001 | 0.088 ± 0.0021 | 0.4297 ± 0.0023
4 | P15M | 0.0625 ± 0.0018 | 0.0795 ± 0.001 | 0.637 ± 0.02
5 | P15F | 0.0662 ± 0.0018 | 0.0702 ± 0.0049 | 0.256 ± 0.013
6 | P15S | 0.0621 ± 0.0029 | 0.0883 ± 0.0052 | 0.802 ± 0.01
7 | P15Q | 0.0654 ± 0.00078 | 0.0903 ± 0.0029 | 0.9395 ± 0.0039
8 | P15C | 0.0656 ± 0.0052 | 0.0826 ± 0.0018 | 0.5684 ± 0.001
9 | P15Y | 0.0652 ± 0.0021 | 0.0684 ± 0.0034 | 0.368 ± 0.0021
10 | P15A | 0.0674 ± 0.0042 | 0.0953 ± 0.0088 | 0.691 ± 0.02
11 | P15I | 0.06047 ± 0.00052 | 0.0612 ± 0.0015 | 0.288 ± 0.026
12 | P15H | 0.0667 ± 0.001 | 0.092 ± 0.0052 | 0.706 ± 0.044
13 | P15N | 0.0629 ± 0.0034 | 0.0859 ± 0.0018 | 0.885 ± 0.022
14 | P15K | 0.0634 | 0.0958 ± 0.01 | 1.34 ± 0.047
15 | P15G | 0.0643 ± 0.0018 | 0.085 ± 0.0047 | 0.447 ± 0.028
16 | P15R | 0.06341 ± 0.00052 | 0.0876 ± 0.0021 | 1.04 ± 0.064
17 | P15T | 0.0632 ± 0.00078 | 0.1006 ± 0.00078 | 0.859 ± 0.058
18 | P15D | 0.066 ± 0.0057 | 0.0689 ± 0.0021 | 0.286 ± 0.008
19 | P15L | 0.0667 | 0.0938 ± 0.0036 | 1.06 ± 0.078
20 | Q4A | 0.0537 ± 0.0044 | 0.0555 ± 0.0018 | 0.4821 ± 0.0029
21 | E7Y | 0.06249 ± 0.00026 | 0.06542 ± 0.00026 | 0.2223 ± 0.00026
22 | E7K | 0.0662 ± 0.00078 | 0.113 ± 0.0023 | 1.99 ± 0.1

Row | Variant | sfGFP reporter fluorescence [1] | sfGFP reporter fluorescence ([2]; ligand: 1 µM Pb) | sfGFP reporter fluorescence ([2]; ligand: 30 µM Zn)
23 | E7I | 0.059 ± 0.001 | 0.0759 ± 0.0031 | 0.696 ± 0.014
24 | E7N | 0.05919 ± 0.00026 | 0.088 ± 0.0047 | 0.858 ± 0.081
25 | E7S | 0.0625 ± 0.0018 | 0.087 ± 0.0044 | 0.999 ± 0.052
26 | E7L | 0.06175 ± 0.00026 | 0.0837 ± 0.0013 | 0.846 ± 0.052
27 | E7H | 0.06139 ± 0.00026 | 0.083 ± 0.0013 | 0.638 ± 0.036
28 | E7T | 0.0625 ± 0.0018 | 0.0894 ± 0.001 | 0.904 ± 0.041
29 | E7V | 0.06285 ± 0.00026 | 0.0865 | 0.961 ± 0.14
30 | E7G | 0.05882 ± 0.00026 | 0.0755 ± 0.0042 | 0.626 ± 0.02
31 | E7Q | 0.0605 | 0.0891 ± 0.0026 | 1.18 ± 0.057
32 | E7R | 0.06395 ± 0.00026 | 0.102 ± 0.0054 | 1.25 ± 0.16
33 | E7C | 0.06121 ± 0.00052 | 0.0718 ± 0.0021 | 0.421 ± 0.026
34 | E7D | 0.0592 ± 0.0018 | 0.0823 ± 0.006 | 1.08 ± 0.044
35 | E7F | 0.0601 ± 0.0015 | 0.0636 ± 0.0013 | 0.133 ± 0.012
36 | E7P | 0.061 ± 0.0013 | 0.0709 ± 0.00078 | 0.3319 ± 0.0018
37 | E7W | 0.0608 ± 0.0015 | 0.06359 ± 0.00026 | 0.19 ± 0.0023
38 | E7A | 0.0552 ± 0.0018 | 0.0671 ± 0.001 | 1.07 ± 0.011
39 | E7M | 0.0616 ± 0.0021 | 0.0854 ± 0.0021 | 0.859 ± 0.01
40 | I3T | 0.0597 ± 0.001 | 0.0667 ± 0.0047 | 0.331 ± 0.011
41 | I3Y | 0.0612 ± 0.0021 | 0.06744 ± 0.00052 | 0.977 ± 0.061
42 | I3P | 0.0592 ± 0.0018 | 0.0583 ± 0.0036 | 0.0546 ± 0.0026
43 | I3S | 0.05864 ± 0.00052 | 0.0605 ± 0.0036 | 0.2084 ± 0.0013
44 | I3N | 0.0599 ± 0.0013 | 0.0579 ± 0.0021 | 0.1142 ± 0.00026

Row | Variant | sfGFP reporter fluorescence [1] | sfGFP reporter fluorescence ([2]; ligand: 1 µM Pb) | sfGFP reporter fluorescence ([2]; ligand: 30 µM Zn)
45 | I3V | 0.0619 ± 0.001 | 0.124 ± 0.0044 | 1.32 ± 0.025
46 | I3R | 0.0605 | 0.0792 | 0.376 ± 0.024
47 | I3Q | 0.0548 ± 0.0029 | 0.0671 ± 0.0026 | 0.336 ± 0.0075
48 | I3W | 0.05919 ± 0.00026 | 0.0766 ± 0.001 | 0.957 ± 0.056
49 | E25A | 0.0634 ± 0.0036 | 0.0823 ± 0.0029 | 0.611 ± 0.041
50 | G26A | 0.06304 ± 0.00052 | 0.0724 ± 0.0023 | 0.512 ± 0.033
51 | I5A | 0.0515 ± 0.0039 | 0.05186 ± 0.00026 | 0.0817 ± 0.0036
52 | R11A | 0.0548 ± 0.0023 | 0.0709 ± 0.0013 | 0.565 ± 0.025
53 | L28A | 0.06322 ± 0.00026 | 0.0603 ± 0.00078 | 0.0695 ± 0.0013
54 | L28C | 0.06304 ± 0.00052 | 0.06487 ± 0.00052 | 0.14 ± 0.0052
55 | T18A | 0.0612 ± 0.001 | 0.0612 ± 0.0026 | 0.188 ± 0.014
56 | Y22E | 0.06157 ± 0.00052 | 0.0621 ± 0.0013 | 0.06011 ± 0.00052
57 | Y22V | 0.06359 ± 0.00026 | 0.0614 ± 0.00078 | 0.0641 ± 0.0021
58 | Y22T | 0.05937 ± 0.00052 | 0.06084 ± 0.00052 | 0.06121 ± 0.00052
59 | Y22N | 0.0619 ± 0.0031 | 0.0607 ± 0.0029 | 0.0614 ± 0.0023
60 | Y22H | 0.063 ± 0.0015 | 0.06249 ± 0.00026 | 0.0651 ± 0.0018
61 | Y22R | 0.0678 ± 0.00052 | 0.06579 ± 0.00026 | 0.0689 ± 0.0031
62 | Y22K | 0.0625 ± 0.0018 | 0.0627 ± 0.001 | 0.0614 ± 0.0029
63 | Y22I | 0.0605 ± 0.0015 | 0.0583 ± 0.0015 | 0.0564 ± 0.0036
64 | Y22D | 0.06066 ± 0.00026 | 0.0618 ± 0.0018 | 0.06011 ± 0.00052
65 | Y22W | 0.0658 ± 0.0029 | 0.142 ± 0.00026 | 2.1 ± 0.13
66 | Y22Q | 0.0627 ± 0.001 | 0.0612 | 0.0607 ± 0.0023

Row | Variant | sfGFP reporter fluorescence [1] | sfGFP reporter fluorescence ([2]; ligand: 1 µM Pb) | sfGFP reporter fluorescence ([2]; ligand: 30 µM Zn)
67 | Y22A | 0.06029 ± 0.00026 | 0.0557 ± 0.0021 | 0.0634 ± 0.001
68 | Y22S | 0.0636 ± 0.0013 | 0.06084 ± 0.00052 | 0.0619 ± 0.001
69 | Y22L | 0.0614 ± 0.00078 | 0.0597 ± 0.0015 | 0.07183 ± 0.00052
70 | Y22P | 0.0618 ± 0.0018 | 0.06066 ± 0.00026 | 0.0621 ± 0.0023
71 | Y22C | 0.0614 ± 0.0044 | 0.0623 ± 0.00052 | 0.05919 ± 0.00026
72 | Y22G | 0.0594 ± 0.0031 | 0.05846 ± 0.00026 | 0.0605 ± 0.0015
73 | Y22M | 0.0638 ± 0.001 | 0.0612 ± 0.0031 | 0.064 ± 0.0013
74 | Y22F | 0.0629 ± 0.0029 | 0.0662 ± 0.00078 | 0.173 ± 0.0039
75 | G6V | 0.0618 ± 0.0013 | 0.0618 ± 0.0013 | 0.0651 ± 0.0013
76 | G6F | 0.0592 ± 0.0018 | 0.06029 ± 0.00026 | 0.0629 ± 0.00078
77 | G6K | 0.0625 ± 0.0013 | 0.06414 ± 0.00052 | 0.222 ± 0.0031
78 | G6P | 0.061 ± 0.0013 | 0.0601 ± 0.0015 | 0.06084 ± 0.00052
79 | G6A | 0.0504 ± 0.0018 | 0.0491 ± 0.00052 | 0.09016 ± 0.00052
80 | G6D | 0.06377 ± 0.00052 | 0.06047 ± 0.00052 | 0.0621 ± 0.00078
81 | G6W | 0.061 ± 0.0023 | 0.06011 ± 0.00052 | 0.06212 ± 0.00026
82 | G6C | 0.0601 ± 0.0026 | 0.05882 ± 0.00026 | 0.0621 ± 0.0018
83 | G6T | 0.0594 ± 0.0021 | 0.0608 ± 0.0015 | 0.0799 ± 0.0047
84 | G6E | 0.0636 ± 0.0034 | 0.0605 ± 0.0015 | 0.0625 ± 0.0034
85 | G6L | 0.0607 ± 0.00078 | 0.06157 ± 0.00052 | 0.0682 ± 0.001
86 | G6R | 0.0605 ± 0.001 | 0.0632 ± 0.00078 | 0.116 ± 0.0039
87 | G6I | 0.05846 ± 0.00026 | 0.0585 ± 0.0023 | 0.0618 ± 0.0018
88 | G6N | 0.0607 ± 0.00078 | 0.0599 ± 0.0013 | 0.0773 ± 0.0015
